T1: Myc-tagged MyoD, full length 318 aa (FL) (UniProt P10085 1-318)
T1 construct: Overexpressed in 293T cells; also called MyoD FL; not shown: Myc tag from the pCMV-Myc vector
T1 sequence (looked up): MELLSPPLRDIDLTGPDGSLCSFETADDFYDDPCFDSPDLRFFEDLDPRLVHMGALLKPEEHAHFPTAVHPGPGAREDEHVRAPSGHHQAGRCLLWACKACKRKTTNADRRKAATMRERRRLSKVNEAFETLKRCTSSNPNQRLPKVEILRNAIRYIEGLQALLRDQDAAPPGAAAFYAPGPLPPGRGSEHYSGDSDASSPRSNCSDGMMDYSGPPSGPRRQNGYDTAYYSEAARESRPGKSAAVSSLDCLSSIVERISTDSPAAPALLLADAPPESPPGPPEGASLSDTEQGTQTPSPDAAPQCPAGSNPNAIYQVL


How the values were obtained:
[1] = molecular target: T2, Flag-tagged TAZ (transcriptional coactivator with PDZ-binding motif), full length (1-395 aa) (Mus musculus (Mouse), UniProt Q9EPK5 1-395); assay: co-immunoprecipitation from 293T cells, Flag-M2 beads, immunoblot
T2 construct: also called TAZ FL; Flag-TAZ; not shown: Flag tag

[2] = molecular target: T1, Myc-tagged MyoD, full length 318 aa (FL); assay: co-immunoprecipitation from 293T cells, Flag-M2 beads, MyoD immunoblot

Row | binding result [1] | binding result [2] | Binder
1 | no binding | – | NT MyoD (MyoD aa 1-102), Myc-tagged (other, UniProt P10085 1-102, looked up, Coexpressed with Flag-TAZ in 293T cells; not shown: Myc tag from the pCMV-Myc vector) MELLSPPLRDIDLTGPDGSLCSFETADDFYDDPCFDSPDLRFFEDLDPRLVHMGALLKPEEHAHFPTAVHPGPGAREDEHVRAPSGHHQAGRCLLWACKACK
2 | – | no binding | TAZ truncation ΔN2 (aa 164-395 TAZ), lacking the WW domain (other, Cotransfected with MyoD into 293T cells; not shown: Flag tag, implied by the precipitation with Flag-M2 beads) NHVNLHPSITSTSVPQRSMAVSQPNLAMNHQHQQVVATSLSPQNHPTQNQPTGLMSVPNALTTQQQQQQKLRLQRIQMERERIRMRQEELMRQEAALCRQLPMETETMAPVNTPAMSTDMRSVTNSSSDPFLNGGPYHSREQSTDSGLGLGCYSVPTTPEDFLSNMDEMDTGENSGQTPMTVNPQQTRFPDFLDCLPGTNVDLGTLESEDLIPLFNDVESALNKSEPFLTWL
